In PMC10006412 one finds stoichiometry N data, which are given here for 1 substance.

The target of this experiment is Newcastle disease virus phosphoprotein (P protein) (Newcastle disease virus). Put plainly: cryo-EM structure.

For the substance “Newcastle disease virus phosphoprotein (P protein) (natural protein)”, the stoichiometry N amounted to 4.
